Values belong to the molecule of their own block, whether it stands above or below them.
What was measured:
[1] = biological target: T1, AMP-dependent ACS (Mthe_1194) (Methanothrix thermoacetophila, UniProt A0B8F1); test: discontinuous pyrophosphate detection (molybdate / Eikonogen, […] nm); type: biochemical; conditions: co-substrates ATP and CoA; 55°C
T1 construct: gene acsA; full-length gene in pASK-IBA5, N-terminal Strep-tag II, E. coli BL21 (DE3) pLysS; approximately 75 kDa on SDS gel
T1 sequence (A0B8F1 1-659): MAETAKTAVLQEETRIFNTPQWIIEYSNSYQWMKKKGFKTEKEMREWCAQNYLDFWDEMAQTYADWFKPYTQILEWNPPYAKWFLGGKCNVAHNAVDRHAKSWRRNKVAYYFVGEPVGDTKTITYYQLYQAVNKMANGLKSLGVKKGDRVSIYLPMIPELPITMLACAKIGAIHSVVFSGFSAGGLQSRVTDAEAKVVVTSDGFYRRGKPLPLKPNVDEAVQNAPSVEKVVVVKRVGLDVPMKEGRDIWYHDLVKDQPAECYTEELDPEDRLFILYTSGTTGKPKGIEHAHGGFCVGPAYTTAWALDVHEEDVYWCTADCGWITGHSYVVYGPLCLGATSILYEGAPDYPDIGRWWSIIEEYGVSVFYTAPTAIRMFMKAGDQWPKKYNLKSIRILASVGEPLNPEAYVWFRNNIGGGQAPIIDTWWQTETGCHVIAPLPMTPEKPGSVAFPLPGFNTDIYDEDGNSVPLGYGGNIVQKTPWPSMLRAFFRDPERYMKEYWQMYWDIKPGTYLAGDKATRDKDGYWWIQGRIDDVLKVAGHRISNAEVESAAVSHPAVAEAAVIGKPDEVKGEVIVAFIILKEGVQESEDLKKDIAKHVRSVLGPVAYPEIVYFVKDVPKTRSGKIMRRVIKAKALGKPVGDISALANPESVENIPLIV

[2] = biological target: T1, AMP-dependent ACS (Mthe_1194); test: coupled assay via auxiliary enzymes (myokinase, pyruvate kinase, lactate dehydrogenase), NADH […] nm; type: biochemical; conditions: read-out: 50% reduction of the reaction rate
purified protein [3] = substrate: CC(C)(COP(=O)(O)OP(=O)(O)OC[C@H]1O[C@@H](n2cnc3c(N)ncnc32)[C@H](O)[C@@H]1OP(=O)(O)O)[C@@H](O)C(=O)NCCC(=O)NCCS; test: purified protein; type: biochemical, Methanothrix thermoacetophila; conditions: co-substrates acetate and ATP, 55°C
purified protein [4] = substrate: Nc1ncnc2c1ncn2[C@@H]1O[C@H](COP(=O)(O)OP(=O)(O)OP(=O)(O)O)[C@@H](O)[C@H]1O; test: purified protein; type: biochemical, Methanothrix thermoacetophila; conditions: co-substrates acetate and CoA, 55°C
purified protein [5] = substrate: CC(=O)O; test: purified protein; conditions: 50 mM HEPES pH 7.5, 5 mM MgCl2, 1 mM CoA, 2.5 mM ATP, 55°C

Molecule: CCC(=O)O [propionate]
discontinuous pyrophosphate detection (molybdate / Eikonogen, 580 nm) [1]: A reaction was also observed with propionate

IC50 [2]: ~250 µM
Molecule: O=P(O)(O)OP(=O)(O)O [PPi]

B1: AMP-dependent ACS (Mthe_1194) (Methanothrix thermoacetophila PT) (protein)
chain: MAETAKTAVLQEETRIFNTPQWIIEYSNSYQWMKKKGFKTEKEMREWCAQNYLDFWDEMAQTYADWFKPYTQILEWNPPYAKWFLGGKCNVAHNAVDRHAKSWRRNKVAYYFVGEPVGDTKTITYYQLYQAVNKMANGLKSLGVKKGDRVSIYLPMIPELPITMLACAKIGAIHSVVFSGFSAGGLQSRVTDAEAKVVVTSDGFYRRGKPLPLKPNVDEAVQNAPSVEKVVVVKRVGLDVPMKEGRDIWYHDLVKDQPAECYTEELDPEDRLFILYTSGTTGKPKGIEHAHGGFCVGPAYTTAWALDVHEEDVYWCTADCGWITGHSYVVYGPLCLGATSILYEGAPDYPDIGRWWSIIEEYGVSVFYTAPTAIRMFMKAGDQWPKKYNLKSIRILASVGEPLNPEAYVWFRNNIGGGQAPIIDTWWQTETGCHVIAPLPMTPEKPGSVAFPLPGFNTDIYDEDGNSVPLGYGGNIVQKTPWPSMLRAFFRDPERYMKEYWQMYWDIKPGTYLAGDKATRDKDGYWWIQGRIDDVLKVAGHRISNAEVESAAVSHPAVAEAAVIGKPDEVKGEVIVAFIILKEGVQESEDLKKDIAKHVRSVLGPVAYPEIVYFVKDVPKTRSGKIMRRVIKAKALGKPVGDISALANPESVENIPLIV
notes: full-length gene in pASK-IBA5, N-terminal Strep-tag II, E. coli BL21 (DE3) pLysS; approximately 75 kDa on SDS gel
Km (purified protein [3]): 14.5 µM
Km (purified protein [4]): 20 µM
Km (purified protein [5]): 400 µM

From article PMC3426162 (Archaea, 2012)
